Values of other authors, collected in article PMC6964287.

Columns and labels:
[1] = biological target: Asp96 (UniProt position 109, PLLLLDLALLV); assay: NMR; details: membrane-associated pHLIP; protonation linked to bilayer insertion
[2] = biological target: Asp85 (UniProt position 98, WARYADWLFTT); assay: NMR; details: membrane-associated pHLIP; protonation linked to bilayer insertion

pHLIP (pH-Low Insertion Peptide), peptide derived from bacteriorhodopsin helix C (Halobacterium salinarum)
pKa [1]: 6.08 ± 0.08
pKa [2]: 5.82 ± 0.08
